Source: PMC3225178

Biological target: SmLip residues 27-176 (mature Lip minus signal peptide) fused to T18 (pSC072) or to T25 (pSC080) (Serratia marcescens)
Experiment: two-hybrid

For “SmLip residues 27-176 (mature Lip minus signal peptide) fused to T18 (pSC072) or to T25 (pSC080) (domain or fragment)”, the β-galactosidase activity (two-hybrid output) was > 5000 Miller units.
